The data set deals with the molecule itself. Description: combined sedimentation/Stokes analysis.

B1: Sec7ΔC+HDS1, Sec7 residues 203-1220, purified (domain or fragment, yeast, UniProt P11075 203-1220, looked up)
chain: PRSTHTRNISLSSNGSNTNSTIILVKTTLETILNDKDIKKNSNAQKAIERTLQKFKEFDPQTTNNPHYVDSILVFEALRASCRTKSSKVQSLALDCLSKLFSFRSLDETLLVNPPDSLASNDQRQDAADGITPPPKQKIIDAAIDTISDCFQGEGTDDRVELQIVRALSSCILEEDSSSLCHGASLLKAIRTIYNVFVFSLNPSNQGIAQATLTQIISSVYDKIDLKQSTSSAVSLSTKNHQQQSAIELSEASENAETPAPLTLENMDKLNDDEERLMDAQQPDSIAITNQDLAVKDAFLVFRVMAKICAKPLETELDMRSHAVRSKLLSLHIIYSIIKDHIDVFLSHNIFLPGKERVCFIDSIRQYLRLVLSRNAASPLAPVFEVTLEIMWLLIANLRADFVKEIPVFLTEIYFPISELTTSTSQQKRYFLSVIQRICNDPRTLVEFYLNYDCNPGMPNVMEITVDYLTRLALTRVEITQTQRSYYDEQISKSLSTYNFSQLPLLTSSNLSSSPDVGQVNLLFPLDFALKMVSLNCIVSVLRSLSSWAHKALNPNTHTANKVLLNTTSSARQESRSSLSNDVRSSIMTSNDDFKPTYEDEESRSLSSQNIDADDPTQFENLKLRKTALSECIAIFNNKPKKAIPVLIKKGFLKDDSPISIAKWLLETEGLDMAAVGDYLGEGDDKNIAIMHAFVDEFDFTGMSIVDALRSFLQSFRLPGEGQKIDRFMLKFAERFVDQNPGVFSKADTAYVLSYSLIMLNTDLHSSQIKNKMSLQEFLENNEGIDNGRDLPRDFLEGLFNEIANNEIKLISEQHQAMLSGDTNLVQQQQSAFNFFNSRDLTREAYNQVSKEISSKTELVFKNLNKNKGGPDVYYAASHVEHVKSIFETLWMSFLAALTPPFKDYDDIDTTNKCLEGLKISIKIASTFRINDARTSFVGALVQFCNLQNLEEIKVKNVNAMVILLEVALSEGNYLEGSWKDILLVVSQMERLQLISKGIDRDTVPDVAQARVANPRVS
The stoichiometry N is a count of units in the complex or per binding partner. With B1, the “stoichiometry N” value stood at 2.

B2: Sec7f, Sec7(203-2009) purified fragment (domain or fragment, yeast, UniProt P11075 203-2009, looked up)
chain: PRSTHTRNISLSSNGSNTNSTIILVKTTLETILNDKDIKKNSNAQKAIERTLQKFKEFDPQTTNNPHYVDSILVFEALRASCRTKSSKVQSLALDCLSKLFSFRSLDETLLVNPPDSLASNDQRQDAADGITPPPKQKIIDAAIDTISDCFQGEGTDDRVELQIVRALSSCILEEDSSSLCHGASLLKAIRTIYNVFVFSLNPSNQGIAQATLTQIISSVYDKIDLKQSTSSAVSLSTKNHQQQSAIELSEASENAETPAPLTLENMDKLNDDEERLMDAQQPDSIAITNQDLAVKDAFLVFRVMAKICAKPLETELDMRSHAVRSKLLSLHIIYSIIKDHIDVFLSHNIFLPGKERVCFIDSIRQYLRLVLSRNAASPLAPVFEVTLEIMWLLIANLRADFVKEIPVFLTEIYFPISELTTSTSQQKRYFLSVIQRICNDPRTLVEFYLNYDCNPGMPNVMEITVDYLTRLALTRVEITQTQRSYYDEQISKSLSTYNFSQLPLLTSSNLSSSPDVGQVNLLFPLDFALKMVSLNCIVSVLRSLSSWAHKALNPNTHTANKVLLNTTSSARQESRSSLSNDVRSSIMTSNDDFKPTYEDEESRSLSSQNIDADDPTQFENLKLRKTALSECIAIFNNKPKKAIPVLIKKGFLKDDSPISIAKWLLETEGLDMAAVGDYLGEGDDKNIAIMHAFVDEFDFTGMSIVDALRSFLQSFRLPGEGQKIDRFMLKFAERFVDQNPGVFSKADTAYVLSYSLIMLNTDLHSSQIKNKMSLQEFLENNEGIDNGRDLPRDFLEGLFNEIANNEIKLISEQHQAMLSGDTNLVQQQQSAFNFFNSRDLTREAYNQVSKEISSKTELVFKNLNKNKGGPDVYYAASHVEHVKSIFETLWMSFLAALTPPFKDYDDIDTTNKCLEGLKISIKIASTFRINDARTSFVGALVQFCNLQNLEEIKVKNVNAMVILLEVALSEGNYLEGSWKDILLVVSQMERLQLISKGIDRDTVPDVAQARVANPRVSYESSRSNNTSFFDVWGKKATPTELAQEKHHNQTLSPEISKFISSSELVVLMDNIFTKSSELSGNAIVDFIKALTAVSLEEIESSENASTPRMFSLQKMVDVCYYNMDRIKLEWTPLWAVMGKAFNKIATNSNLAVVFFAIDSLRQLSMRFLDIEELSGFEFQHDFLKPFEYTVQNSGNTEVQEMIIECFRNFILTKSESIKSGWKPILESLQYTARSSTESIVLKTQLLVSNDIVTNHFENVFSQEDAFSELVGVFREITKNKRFQKLSLHALESLRKMTQNVADICFYNENKTEEERKHNDALLRGKDIFQDVWFPMLFCFNDTIMTAEDLEVRSRALNYMFDALVAYGGKFNDDFWEKICKKLLFPIFGVLSKHWEVNQFNSHDDLSVWLSTTLIQALRNLIALFTHYFESLNRMLDGFLGLLVSCICQENDTIARIGRSCLQQLILQNVSKFNEYHWNQIGDVFDKLFDLTTANELFDYDPLQQGRKSSVSHHQTTNDTSQHSDDDSNDRRENDSNISETVERAHQEESSEDVGGDMVETLNGQTKLNNGNSVPTVKDELNPKPASLSIPKKTKHMKRNESNEDIRRRINIKNSIVVKCVLQLLMIELLNELFENEDFAHCIPYKEAIRITRLLEKSYEFSRDFNEDYGLRTRLVEARVVDKIPNLLKQETSAAAVLLDIMFQLYLNDDEKKADLITRLITICIQVVEGYVSLDDRTMERSINAWRSVIVEILQGYYEFDDEDFRLYCPAMYALVIQILDKSVPTELRHAIKQFLSRVGELYLSTD
With B2, the “stoichiometry N” value is 2.
